Source: ChEMBL document CHEMBL1127417, “Multisubstrate inhibition of 4-hydroxybenzoate 3-monooxygenase” (J Med Chem, 1994)

Legend:
[1] = substrate: O=C(O)c1ccc(O)cc1OCc1ccccc1; test: Michaelis-Menten constant against p-hydroxybenzoate hydroxylase (PHBH) from Pseudomonas fluorescence compared with p-hydroxy benzoic acid; conditions: Pseudomonas fluorescens
[2] = substrate: O=C(O)c1ccc(O)cc1OCc1ccccc1; test: Michaelis-Menten constant against p-hydroxybenzoate hydroxylase (PHBH) from Pseudomonas fluorescence compared with NADPH; conditions: Pseudomonas fluorescens

B1: p-hydroxybenzoate hydroxylase (Pseudomonas fluorescens), P00438 (protein)
chain: MKTQVAIIGAGPSGLLLGQLLHKAGIDNVILERQTPDYVLGRIRAGVLEQGMVDLLREAGVDRRMARDGLVHEGVEIAFAGQRRRIDLKRLSGGKTVTVYGQTEVTRDLMEAREACGATTVYQAAEVRLHDLQGERPYVTFERDGERLRLDCDYIAGCDGFHGISRQSIPAERLKVFERVYPFGWLGLLADTPPVSHELIYANHPRGFALCSQRSATRSRYYVQVPLTEKVEDWSDERFWTELKARLPAEVAEKLVTGPSLEKSIAPLRSFVVEPMQHGRLFLAGDAAHIVPPTGAKGLNLAASDVSTLYRLLLKAYREGRGELLERYSAICLRRIWKAERFSWWMTSVLHRFPDTDAFSQRIQQTELEYYLGSEAGLATIAENYVGLPYEEIE
For B1, the Km [1] was 21 µM and the Km [2] was 57 µM.
